From patent US20210403552A1 (SHANGHAI GENBASE BIOTECHNOLOGY, published 2021)
Where two headings read alike, the source gives them in different places.

T1: mouse CLDN18.2 (mouse, UniProt P56857 10-264)
T1 construct: over-expressed on HEK293T cells by lentivirus; also called mCLDN18.2; murine CLDN18.2
T1 chain: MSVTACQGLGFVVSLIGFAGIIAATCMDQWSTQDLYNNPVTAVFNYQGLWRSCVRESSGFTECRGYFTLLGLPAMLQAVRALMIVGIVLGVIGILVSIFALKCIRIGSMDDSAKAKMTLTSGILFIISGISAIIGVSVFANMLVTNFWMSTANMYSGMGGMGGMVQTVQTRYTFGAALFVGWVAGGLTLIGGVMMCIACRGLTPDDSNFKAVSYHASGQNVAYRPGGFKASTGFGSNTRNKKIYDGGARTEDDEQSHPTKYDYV


Assays:
human CLDN18.2 [1] = target: human CLDN18.2 (human); assay: cell-based or functional assay
human CLDN18.2 [2] = target: T2, human CLDN18.2 (human); assay: imaging cytometry (% fluorescent cells), HEK293T-hCLDN18.2 cells
T2 construct: over-expressed on HEK293T or OCUM-1 cells by lentivirus; KATO-III and NUGC4 gastric cancer cells express it naturally; also called hCLDN18.2; hCLDNA18.2
Experimental: (§1) 10,000 cells were plated in 100 μL of DMEM containing 10% FBS per well in a flat-bottomed 96-well plate. After the cells adhered or were settled to the bottom of the wells overnight, the supernatant was removed on the next day. 3-Fold gradient dilution of antibody was performed by diluting 1/3 of the total volume (i.e., 100 μL) in 200 μL of DMEM. 100 μL of the diluted antibody (the supernatants of fused clones or subclones was used in the screening) was added to each well of the cell plate, 100 μL of DMEM was added to the corresponding negative control well, and incubation was carried out for 1 hour at room temperature. After removing the supernatant, 100 μL of secondary antibody (5 μg/mL, diluted in DMEM) was added to each well, and incubated at room temperature for 0.5 hours. The supernatant was removed after staining, followed by washing with PBS once. 100 μL of PBS was added to each well, and then reading was carried out on the cytometer.
(§2) A full-field scanning cytometer (Nexcelom, Celigo® Image Cytometer) was used to measure the readings of the experimental plate. During the measurement, high-speed scanning imaging of the cells in the well was simultaneously performed in the green fluorescent channel corresponding to the secondary antibody and in the bright field channel. The cells that bound the antibody were counted in the image obtained from the green fluorescent channel under the parameters set in accordance with the morphology and fluorescence intensity of the fluorescently labeled cells, and the adhered cells were counted in the image obtained from the bright field channel under the parameters set in accordance with the morphology of the cells. […] The data analysis was performed using GraphPad.

human CLDN18.2 [3] = target: T2, human CLDN18.2; assay: cell-based or functional assay; remark: listed apart in the source
human CLDN18.2 [4] = target: T2, human CLDN18.2; assay: cell-based or functional assay; remark: listed apart in the source
human CLDN18.2 [5] = target: T2, human CLDN18.2; assay: cell-based or functional assay; remark: listed apart in the source
human CLDN18.2 [6] = target: T2, human CLDN18.2; assay: imaging cytometry (% fluorescent cells), HEK293T-hCLDN18.2 cells; remark: listed apart in the source
Experimental: as §1, §2

human CLDN18.2 [7] = target: T2, human CLDN18.2; assay: cell-based or functional assay; remark: listed apart in the source
mouse CLDN18.2 = target: T1, mouse CLDN18.2; assay: imaging cytometry (% fluorescent cells), HEK293-mCLDN18.2 cells
Source text: (§3) HEK293T-hCLDN18.2 and OCUM-1-hCLDN18.2 expressing human CLDN18.2 (hCLDN18.2), or HEK293T-mCLDN18.2 expressing mouse CLDN18.2 (mCLDN18.2) and the corresponding negative control cell line HEK293T were used; or HEK293T-hCLDN18.1 and CHOS-hCLDN18.1 expressing human CLDN18.1 (hCLDN18.1) were used. DyLight488 goat anti-mouse IgG (Abcam, Catalog No. ab97015) or DyLight488 goat anti-human IgG (Abcam, Catalog No. ab97003) was used as secondary antibody. Binding curves were generated by using the following method.
as §1
(§4) A full-field scanning cytometer (Nexcelom, Celigo® Image Cytometer) was used to measure the readings of the experimental plate. During the measurement, high-speed scanning imaging of the cells in the well was simultaneously performed in the green fluorescent channel corresponding to the secondary antibody and in the bright field channel. The cells that bound the antibody were counted in the image obtained from the green fluorescent channel under the parameters set in accordance with the morphology and fluorescence intensity of the fluorescently labeled cells, and the adhered cells were counted in the image obtained from the bright field channel under the parameters set in accordance with the morphology of the cells.

human CLDN18.2 [8] = target: T2, human CLDN18.2; assay: imaging cytometry (% fluorescent cells), OCUM1-hCLDN18.2 cells
Source text: as §3, §1, §4

human CLDN18.1 [9] = target: T3, human CLDN18.1 (human, UniProt P56856 1-261); assay: imaging cytometry (% fluorescent cells), HEK293-hCLDN18.1 cells
T3 construct: over-expressed on HEK293T or CHOS cells by lentivirus; also called hCLDN18.1
T3 sequence (P56856 whole entry): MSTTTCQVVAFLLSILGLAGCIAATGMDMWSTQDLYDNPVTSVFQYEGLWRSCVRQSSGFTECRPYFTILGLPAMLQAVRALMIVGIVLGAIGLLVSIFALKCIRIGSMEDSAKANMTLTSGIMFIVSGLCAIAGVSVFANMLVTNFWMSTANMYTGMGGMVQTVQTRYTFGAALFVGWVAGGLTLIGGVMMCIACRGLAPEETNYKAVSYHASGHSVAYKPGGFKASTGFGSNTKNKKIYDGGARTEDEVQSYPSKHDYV
Source text: as §3
(§5) 10,000 cells were plated in 100 μL of DMEM containing 10% FBS per well in a flat-bottomed 96-well plate. After the cells adhered or were settled to the bottom of the wells overnight, the supernatant was removed on the next day. […] 100 μL of PBS was added to each well, and then reading was carried out on the cytometer.
as §4, with “During the measurement, high-speed scanning imaging of the cells in the well was simultaneously performed in the green fluorescent channel corresponding to the secondary antibody and in the bright field channel.” left out

human CLDN18.2 [10] = target: T2, human CLDN18.2; assay: imaging cytometry (% fluorescent cells), HEK293-hCLDN18.2 cells
Source text: as §3, §1, §4

human CLDN18.1 [11] = target: T3, human CLDN18.1; assay: imaging cytometry (% fluorescent cells), CHOS-hCLDN18.1 cells
Source text: as §3, §5
as §4, with “During the measurement, high-speed scanning imaging of the cells in the well was simultaneously performed in the green fluorescent channel corresponding to the secondary antibody and in the bright field channel.” left out

Row | CDC EC50, HEK293T-hCLDN18.2 target cells, human serum (human CLDN18.2 [1]) | CDC EC50, KATO-III target cells, human serum (human CLDN18.2 [1]) | EC50 (human CLDN18.2 [2]) | Internalization percentage (%), HEK293T-hCLDN18.2 cells, flow cytometry, 10 µg/mL antibody (human CLDN18.2 [3]) | ADCC EC50, HEK293T-hCLDN18.2 target cells, human PBMC effectors (human CLDN18.2 [4]) | ADCC EC50, KATO-III target cells, human PBMC effectors (human CLDN18.2 [4]) | ADCC EC50, NUGC4 target cells, human PBMC effectors (human CLDN18.2 [4]) | ADCC EC50, KATO-III target cells, human PBMC effectors (human CLDN18.2 [5]) | EC50 (human CLDN18.2 [6]) | CDC EC50, KATO-III target cells, human serum (human CLDN18.2 [7]) | EC50 (mouse CLDN18.2) | EC50 (human CLDN18.2 [8]) | EC50 (human CLDN18.1 [9]) | EC50 (human CLDN18.2 [10]) | EC50 (human CLDN18.1 [11]) | Binder
1 | 0.6 µg/mL | 0.18 µg/mL | 0.012 µg/mL | -1.5% | 0.0078 µg/mL | 0.099 µg/mL | 0.047 µg/mL | 0.0117 µg/mL | 0.027 µg/mL | 0.52 µg/mL | – | – | – | – | – | 44F7-chIgG1 (antibody, V domains shown, human-mouse chimeric antibody, human IgG1/kappa constant regions; also called parental chimeric antibody) VH: QVQLQQSGAELVRPGASVKMSCKASGYTFTSYNMHWVKQAPRQGLEWIGTIYPGNGDTSYNQKFKGKATLTVDKSSSTAYMQLSSLTSEDSAVYFCARGGYYGNSLDYWGQGTTLTVSS VL: DIQMTQSPSSLTVTAGEKVTMSCKSSQSLLNSGNQKNYLTWYQQKPGQPPKLLIYWASTRESGVPDRFTGSGSGTDFTLTISSVQAEDLAVYYCQNAYYYPFTFGSGTKLEIKR
2 | 18.2 µg/mL | – | 0.035 µg/mL | – | 0.058 µg/mL | 2.4 µg/mL | – | 0.788 µg/mL | 0.536 µg/mL | 34.8 µg/mL | 0.81 µg/mL | 6.54 µg/mL | – | – | – | 175D10 (antibody, human IgG1, kappa, V domains shown) VH: QVQLQQPGAELVRPGASVKLSCKASGYTFTSYWINWVKQRPGQGLEWIGNIYPSDSYTNYNQKFKDKATLTVDKSSSTAYMQLSSPTSEDSAVYYCTRSWRGNSFDYWGQGTTLTVSS VL: DIVMTQSPSSLTVTAGEKVTMSCKSSQSLLNSGNQKNYLTWYQQKPGQPPKLLIYWASTRESGVPDRFTGSGSGTDFTLTISSVQAEDLAVYYCQNDYSYPFTFGSGTKLEIKR
3 | – | – | – | – | – | – | – | – | – | – | 0.691 µg/mL | 0.026 µg/mL | 0.041 µg/mL | 0.018 µg/mL | 0.092 µg/mL | 1D10 (antibody, V domains shown, murine monoclonal antibody purified from hybridoma culture supernatant; also called ID10) VH: QVQLQQPGAELVKPGASVKLSCKASGYTFTSYWMHWVKQRPGQGLEWIGMIYPNSGSINYNEKFKNKATLTVDKSSSTAYMQLSSLTSEDSAVYFCSVYFDYWGQGTTLTVSS VL: DIQGTQSPSSLSASLGERVSLTCRASQDIGSSLNWLQQEPDGTIKRLIYATSSLDSGVPKRFSVSRSGSDYSLTISSLESEDFVDYYCLQYASSPPTFGGGTKLEIK
4 | – | – | – | – | – | – | – | – | – | – | 0.179 µg/mL | 0.068 µg/mL | 0.714 µg/mL | 0.091 µg/mL | – | 5F9 (antibody, V domains shown, murine monoclonal antibody purified from hybridoma culture supernatant) VH: QVQLQQSGAELVKPGASVKLSCKASGYTFTSYWMHWVKQRPGQGLEWIGMIHPNSVSTNYNEKFKSKATLTVDKSSSTAYMQLSSLTSEDSAVYYCAVYFDYWGQGTTLTVSS VL: DIQVTQSPSSLSASLGERVSLTCRASQDIGSSLNWLQQEPDGTIKRLIYASSSLNSGVPKRFSVSRSGSDYSLTISSLESEDFVDYYCLQYATSPPTFGGGTKLEIK
